Where two headings read alike, the source gives them in different places.
How the values were obtained:
[1] = test system: HPCs; details: cited from earlier work
[2] = test system: endothelial progenitor cells (EPC); assay: Example 1: EPC mobilisation, hind limb bone marrow perfusion and circulating blood, CFU-EPC assay; details: for EPC mobilization: perfusate and blood
Procedure: 24 hours after the last injection, mice were administered a CXCR4 antagonist (AMD3100, 5 mg/kg i.p), or vehicle and blood was collected via cardiac puncture 1 hour later for enumeration of circulating leukocyte, HPC, EPC and MSC levels.
On day 5, mice were anaesthetized with urethane (25% 0.2 ml i.p.) and the femoral artery and vein exposed. The hind limb was isolated by occlusion of the external iliac artery, superficial epigastric and muscular branch with 5/0 braided silk suture. Polyethylene cannulae (0.61 mm OD, Portex, London, UK) were immediately inserted into the femoral artery and vein and tied in place with 5/0 braided silk suture. Perfusion buffer (modified Krebs-Ringer bicarbonate buffer) at 37° C. was infused (0.15 ml/min) via the arterial cannula and removed from the venous cannula using a Minipuls peristaltic pump (Anachem, Luton, UK). The hind limb was perfused for an initial 10 minutes to remove remaining blood from the vasculature and then perfused for a further 60 min with vehicle alone or AMD3100, a CXCR4 antagonist (0.1 mM, Sigma UK) infused over the first 10 minutes using an infusion/withdrawal pump (Harvard Instruments, U.K.).
The perfusate was collected and centrifuged and the cell pellet re-suspended in Dulbecco's modified eagles medium (DMEM) with 20% fetal bovine serum (FBS). A total cell count was performed before the perfusate was lysed for red blood cells, re-suspended again in DMEM (20% FBS) and used for assays outlined below to enumerate haematopoietic progenitor cells (CFU-HPC), endothelial progenitor cells (CFU-EPC), and leukocyte populations.
In some experiments blood was taken to enumerate HPCs, EPCs and leukocytes. A total cell count was performed on citrated blood before being lysed for red blood cells and re-suspended in DMEM (20% FBS).
Assay was performed in duplicate. Dishes were incubated for 7 days before media was changed, and then incubated for a further 14 days before the enumeration of late outgrowth endothelial progenitor cells. Early outgrowth endothelial progenitor cells were enumerated on day 5.
In each of the above assays, the total number of colony forming units mobilised is calculated according to the number of colonies per plate×by the total number of leukocytes mobilized/number of cells seeded.
Mice were anaesthetised and the femoral artery and vein was cannulated such that the femoral bone marrow could be perfused (Martin et al, (2006) Br. J. Haem. 134: 326-329). […]
Mice were injected i.p. with the CXCR4 antagonist, AMD3100, (or vehicle control) and 1 h later the mice were killed. Blood was collected by cardiac puncture and stem cell numbers in the blood were determined. […]

[3] = test system: haematopoietic progenitor cells (HPC); assay: Example 1: HPC mobilisation, hind limb bone marrow perfusion and circulating blood, CFU-HPC assay; format: in vivo, mice
Procedure: Assay was performed in duplicate Mobilised cells were maintained in semi-solid methylcellulose cultures for 11 days before quantification of the number of CFU-HPCs.

[4] = test system: EPCs; assay: In situ perfusion of mouse hind limb, CFU-EPC in perfusate; format: in vivo, mice; details: for EPC mobilization from the bone marrow: agent alone (CXCR4 antagonist 0.1 mM infused 10 min; G-CSF or VEGF pre-treatment 4 days), FIG. 21c
[5] = test system: SPCs; assay: Circulating CFU-SPC (CFU-F) in blood; details: agent alone (AMD3100 5 mg/kg i.p., blood at 60 min; G-CSF once daily for 4 days), FIG. 20d
Procedure: 24 hours after the last injection, mice were administered a CXCR4 antagonist (AMD3100 5 mg/kg i.p, closed bars) or vehicle (PBS, open bars). 60 minutes later, blood was taken for analysis of circulating: b, CFU-HPC; c, CFU-EPC; and d, CFU-SPC. CFU-HPC, CFU-EPC, and CFU-SPC are shown as number of colonies per ml blood. n=5-8 mice per group. Data: means±s.e.m. *: P<0.05, **: P<0.01, ***: P<0.001 between selected groups.
(§4) Female BALB/c mice were purchased from Harlan (Oxford, United Kingdom). […] 24 hours after the last injection, mice were administered a CXCR4 antagonist (AMD3100, 5 mg/kg i.p), KC (30 μg/kg i.v.) or vehicle and blood was collected via cardiac puncture 60 minutes later for enumeration of circulating leukocyte, HPC, EPC, and stromal progenitor cell levels.
The perfusate was centrifuged and re-suspended in DMEM+20% FBS. In some experiments citrated blood was obtained via cardiac bleed and lysed for red blood cells. Bone marrow and perfusate cytospins, and blood smears were stained using DiffQuik for the enumeration of mononuclear cells, eosinophils, and neutrophils. […]
The total number of colony forming units mobilized was calculated according to the number of colonies per plate×by the total number of leukocytes mobilized/number of cells seeded. […]

[6] = test system: mesenchymal stem cells (MSC); assay: Example 1: MSC mobilisation, hind limb bone marrow perfusion and circulating blood, CFU-MSC assay; format: in vivo, mice; details: perfusate and blood, FIGS. 9-12
Procedure: 4×10^5 cells were added to 3 ml Mesencult media including supplements (05501 and 05502 Stemcell Technologies). Assay was performed in duplicate.

[7] = test system: SPCs; assay: In situ perfusion of mouse hind limb, CFU-SPC in perfusate; format: in vivo, mice; details: for SPC mobilization from the bone marrow: FIG. 21d
Procedure: a, overview of procedures set up for identifying the direct mobilization of progenitor cells from the femoral bone marrow. […] 24 hours after the last injection, mice underwent perfusion of the right hind limb. CXCR4 antagonist (AMD3100 0.1 mM, closed bars) or vehicle (PBS, open bars) were then infused directly into the femoral artery for 10 minutes. The hind limb was then perfused for a further 50 minutes to allow collection of b, CFU-HPC; c, CFU-EPC; or d, CFU-SPC; via the femoral vein. CFU-HPC, CFU-EPC, and CFU-SPC are shown as total number of colonies collected in the perfusate. n=5-8 mice per group. Data: means±s.e.m. *: P<0.05, **: P<0.01, ***: P<0.001 between selected groups.
(§5) 24 hours after the last injection, mice were administered a CXCR4 antagonist (AMD3100, 5 mg/kg i.p), KC (30 μg/kg i.v.) or vehicle and blood was collected via cardiac puncture 60 minutes later for enumeration of circulating leukocyte, HPC, EPC, and stromal progenitor cell levels.
(§6) On day 5 following pre-treatment of growth factors, mice were anaesthetized and the femoral artery and vein exposed. The hind limb was isolated by occlusion of the external iliac artery, superficial epigastric and muscular branch. Polyethylene cannulae (Portex, London, UK) were immediately inserted into the femoral artery and vein as previously described (Martin et al., 2003; 2006; Wengner et al., 2008). Perfusion buffer was infused via the arterial cannula and removed from the venous cannula using a Minipuls peristaltic pump (Anachem, Luton, UK). The hind limb was perfused for an initial 2 minutes to remove remaining blood from the vasculature and then perfused for a further 60 min with vehicle alone or the CXCR4 antagonist (AMD3100, 0.1 mM), infused over the first 10 minutes using an infusion/withdrawal pump (Harvard Instruments, U.K.).
(§7) The perfusate was centrifuged and re-suspended in DMEM+20% FBS. In some experiments citrated blood was obtained via cardiac bleed and lysed for red blood cells. Bone marrow and perfusate cytospins, and blood smears were stained using DiffQuik for the enumeration of mononuclear cells, eosinophils, and neutrophils. Bone marrow, perfusate and lysed blood were then used for assays outlined below to enumerate HPCs (CFU-HPC), EPCs (CFU-EPC), SPCs (CFU-F).
(§8) 5×10^5 cells were added to Mesencult media including supplements (Stemcell Technologies). Dishes were incubated for 7 days before media was changed, and then incubated for a further 14 days before the enumeration of SPC colonies (CFU-F).
(§9) The total number of colony forming units mobilized was calculated according to the number of colonies per plate×by the total number of leukocytes mobilized/number of cells seeded.

[8] = test system: HPCs; assay: In situ perfusion of mouse hind limb, CFU-HPC in perfusate; details: for HPC mobilization from the bone marrow: FIG. 21b
Procedure: 24 hours after the last injection, mice underwent perfusion of the right hind limb. […] The hind limb was then perfused for a further 50 minutes to allow collection of b, CFU-HPC; c, CFU-EPC; or d, CFU-SPC; via the femoral vein. CFU-HPC, CFU-EPC, and CFU-SPC are shown as total number of colonies collected in the perfusate. n=5-8 mice per group. Data: means±s.e.m. *: P<0.05, **: P<0.01, ***: P<0.001 between selected groups.
Female BALB/c mice were purchased from Harlan (Oxford, United Kingdom).
as §6
The perfusate was centrifuged and re-suspended in DMEM+20% FBS. […] Bone marrow, perfusate and lysed blood were then used for assays outlined below to enumerate HPCs (CFU-HPC), EPCs (CFU-EPC), SPCs (CFU-F).
5×10^4 cells were added to Methocult medium (Stem cell technologies) supplemented with specific cytokines and growth factors to enable formation of CFU-HPC. Mobilized cells were incubated for 11 days before quantification. Further characteristics of CFU-HPC colonies were obtained on day 12, namely the mean number of cells in each colony, and the mean colony area. The mean colony area (mm^2) was determined by image analysis using Scion Image analysis program (NIH). The cell number was determined by diluting colonies grown in Methocult into DMEM (to disperse the methylcellulose) and aspirating the colonies into a single cell suspension before obtaining a cell count.
as §9

[9] = test system: EPCs; assay: Circulating CFU-EPC in blood; format: in vivo, mice; details: FIG. 20c
[10] = test system: HPCs; assay: Circulating CFU-HPC in blood; details: FIG. 20b
Procedure: a, Experimental protocol. […] 24 hours after the last injection, mice were administered a CXCR4 antagonist (AMD3100 5 mg/kg i.p, closed bars) or vehicle (PBS, open bars). 60 minutes later, blood was taken for analysis of circulating: b, CFU-HPC; c, CFU-EPC; and d, CFU-SPC. CFU-HPC, CFU-EPC, and CFU-SPC are shown as number of colonies per ml blood. n=5-8 mice per group. Data: means±s.e.m. *: P<0.05, **: P<0.01, ***: P<0.001 between selected groups.
as §5
In some experiments citrated blood was obtained via cardiac bleed and lysed for red blood cells. […] Bone marrow, perfusate and lysed blood were then used for assays outlined below to enumerate HPCs (CFU-HPC), EPCs (CFU-EPC), SPCs (CFU-F).
5×10^4 cells were added to Methocult medium (Stem cell technologies) supplemented with specific cytokines and growth factors to enable formation of CFU-HPC. Mobilized cells were incubated for 11 days before quantification.
as §9

[11] = test system: neutrophils; assay: Leukocyte counts of bone marrow; format: in vivo, mice; details: treated 4 days, compared to controls, FIG. 24f
Procedure: 24 hours later these mice underwent perfusion of the right hind limb. CXCR4 antagonist (AMD3100 0.1 mM, closed bars) or vehicle (PBS, open bars) were then infused directly into the femoral artery for 10 minutes. The hind limb was then perfused for a further 50 minutes to allow collection of a, neutrophils via the femoral vein. […] The hind limb was again perfused for a further 50 minutes to allow b, collection of neutrophils.
The perfusate was centrifuged and re-suspended in DMEM+20% FBS. […] Bone marrow and perfusate cytospins, and blood smears were stained using DiffQuik for the enumeration of mononuclear cells, eosinophils, and neutrophils.

[12] = test system: EPCs; assay: CFU-EPC bone marrow frequency; format: in vivo, mice; details: treated over 4 days, compared to controls, FIG. 22b
[13] = test system: HPCs; assay: In vitro chemotaxis of bone marrow HPCs towards SDF-1α; format: cell-based; details: bone marrow cells of mice treated 4 days; 30 nM SDF-1α, FIG. 23d, 23f
Procedure: (§1) Bone marrow was aspirated on day 5 and harvested cells were used to determine a, SDF-1α levels in bone marrow supernatant as determined by ELISA; b, % of bone marrow Lin^− Sca-1^+ cells expressing CXCR4; and c, % of bone marrow CD34^+ VEGFR2^+ cells expressing CXCR4. Harvested cells were also utilized in the following chemotaxis assays: d, number of HPCs; and e, EPCs undergoing chemotaxis towards 30 nM SDF-1α. Cells taken from bone marrow of mice treated with G-CSF (closed bars) or vehicle (PBS, open bars). f, number of HPCs; and g, EPCs undergoing chemotaxis towards 30 nM SDF-1α.

[14] = test system: SPCs; assay: CFU-SPC bone marrow frequency; format: in vivo, mice; details: treated over 4 days, compared to controls, FIG. 22c
Procedure: (§10) 24 hours after the last injection, bone marrow was aspirated for the enumeration of a, CFU-HPC bone marrow frequency; b, CFU-EPC bone marrow frequency; and c, CFU-SPC bone marrow frequency.
as §4, §7, §8

[15] = test system: CXCR4; assay: Flow cytometry of CXCR4 expression on bone marrow HPCs and EPCs; format: in vivo, mice; details: treated 4 days
Procedure: as §1
(§2) For flow cytometric analysis, cells were re-suspended in FACS buffer. To identify neutrophils in the bone marrow, surface expression of the granulocyte marker Ly-6G/Ly6C (Gr-1) was determined. Neutrophils were identified as Gr-1^high positive cells with a characteristic high side scatter profile. HPCs residing in the BM were selected as being negative for lineage (Lin^−) markers: CD3e, CD11b, CD45R, Ly-76, and Gr-1 and positive for Sca-1 (Lin^− Sca-1^+ cells) (Gerber et al., 2002; Uchida, et al., 1997). EPCs residing in the BM were selected as being positive for both CD34 and VEGFR2 (CD34^+ VEGFR2^+ cells) (Asahara et al., 1997; Yoon et al., 2005). Furthermore, neutrophils were stained for the surface expression of CXCR2, whilst Lin^− Sca-1^+ cells and CD34^+ VEGFR2^+ cells were stained for the cell surface expression of CXCR4. Samples were then washed and then quantified on a FACSAria cell sorter (BD Biosciences, Oxford, United Kingdom) and analysed using FACSDiva software.

[16] = test system: SDF-1α; assay: SDF-1α ELISA on bone marrow supernatants; format: in vivo, mice; details: treated once daily for 4 days, FIG. 23a
Procedure: as §1
Supernatant from bone marrow aspirates was analyzed for SDF-1α content as per the recommended protocol for the capture and detection antibody (MAB350 and BAF310 respectively. RnD systems).

[17] = test system: CD34^+ VEGFR2^+ EPCs; assay: PI staining, cell cycle status of CD34+ VEGFR2+ EPCs; format: in vivo, mice; details: treated 4 days, FIG. 25d
Procedure: as §2, with “Furthermore, neutrophils were stained for the surface expression of CXCR2, whilst Lin^− Sca-1^+ cells and CD34^+ VEGFR2^+ cells were stained for the cell surface expression of CXCR4.” left out
(§3) Lin^− Sca-1^+ cells and CD34^+ VEGFR2^+ cells were analysed to determine their cell cycling status using a propidium iodide (PI) stain. […] A dotplot of PI-Width against PI-Area was recorded. Aggregates of cells were detected as cells having a larger PI-W profile and were not included in the gate. […] To calculate the percentage of cells undergoing active cell cycling, a marker was set to exclude the G0/G1 peak and the percentage of cells in S/G2/M was calculated.

[18] = Total number of cells in the femurs; format: in vivo; details: treated over 4 days; not significantly different compared to control mice
Procedure: as §10, §5, §7

[19] = test system: Lin^− Sca-1^+ HPCs; assay: PI staining, cell cycle status of Lin- Sca-1+ HPCs; format: in vivo, mice; details: treated 4 days, FIG. 25c
Procedure: as §2, with “Furthermore, neutrophils were stained for the surface expression of CXCR2, whilst Lin^− Sca-1^+ cells and CD34^+ VEGFR2^+ cells were stained for the cell surface expression of CXCR4.” left out
as §3

[20] = test system: EPCs; assay: In vitro chemotaxis of bone marrow EPCs towards SDF-1α; format: cell-based; details: bone marrow cells of mice treated 4 days; 30 nM SDF-1α, FIG. 23e, 23g
Procedure: as §1

[21] = test system: HPCs and MSCs; details: Ripa et al. (2007) Circulation 116; cited from earlier work
[22] = agent alone (CXCR4 antagonist 0.1 mM infused 10 min; G-CSF or VEGF pre-treatment 4 days)
[23] = agent alone (CXCR4 antagonist 0.1 mM infused 10 min; G-CSF or VEGF pre-treatment 4 days), perfusate over 1 hour
[24] = agent alone (AMD3100 5 mg/kg i.p., blood at 60 min; G-CSF or VEGF once daily for 4 days)
[25] = growth factor pre-treatment 4 days, then CXCR4 antagonist infused

Molecule: c1cc(CN2CCCNCCNCCCNCC2)ccc1CN1CCCNCCNCCCNCC1 [AMD3100, reference compound]
- circulating numbers of HPCs ([1]; AMD3100 alone, mice and humans): stimulates a rapid rise in circulating numbers of HPCs in both mice and humans
- EPCs mobilised (number) ([2]; AMD3100 alone, 0.1 mM infused into hind limb, perfusate, FIG. 5): ~400
- EPC mobilization ([2]; agent alone, FIGS. 5 and 6): stimulates the mobilization of EPCs
- HPCs mobilised (number) ([3]; AMD3100 alone, 0.1 mM infused into hind limb, perfusate, FIG. 3): about 4000
- EPC mobilization from the bone marrow [4]: HPCs and EPCs, but not SPCs were mobilized
- circulating SPCs [5]: SPCs were not detected in the blood
- MSC mobilization ([6]; agent alone): does not mobilize MSCs
- SPC mobilization from the bone marrow [7, 22]: HPCs and EPCs, but not SPCs were mobilized
- HPC mobilization from the bone marrow [8, 23]: HPCs and EPCs, but not SPCs were mobilized
- circulating numbers of EPCs [9, 24]: increased circulating numbers of HPCs and EPCs
- circulating numbers of HPCs [10, 24]: increased circulating numbers of HPCs and EPCs

B1: G-CSF: Granulocyte-colony stimulating factor, recombinant murine cytokine from PeproTech (protein, UniProt P09920 31-208, looked up)
Granulocyte …: VPLVTVSALPPSLPLPRSFLLKSLEQVRKIQASGSVLLEQLCATYKLCHPEELVLLGHSLGIPKASLSGCSSQALQQTQCLSQLHSGLCLYQGLLQALSGISPALAPTLDLLQLDVANFATTIWQQMENLGVAPTVQPTQSAMPAFTSAFQRRAGGVLAISYLQGFLETARLALHHLA
- numbers of neutrophils in the bone marrow [11]: increased numbers of neutrophils in the bone marrow
- HPC mobilization ([1]; chronic G-CSF treatment combined with acute treatment with AMD3100): synergistic effect
- frequency/number of EPCs in the bone marrow [12]: significant reduction in the number of bone marrow EPCs
- EPC mobilization ([2]; G-CSF or VEGF 2.5 μg on 4 consecutive days, then AMD3100, FIGS. 5-8): not enhanced
- HPC mobilization ([3]; G-CSF or VEGF 2.5 μg on 4 consecutive days, then AMD3100 (0.1 mM infusion or 5 mg/kg i.p.), perfusate and blood, FIGS. 1-4): acts synergistically with AMD3100 to mobilize HPCs
- EPC mobilization from the bone marrow [4]: enhanced the basal rate of HPC and EPC egress from the bone marrow
- EPC mobilization, acute administration ([4]; growth factor (50 nM) infused into femoral artery for 10 minutes, alone, FIG. 31b): mobilized both HPCs and EPCs
- HPC chemotaxis towards SDF-1α [13]: further increased migration of HPCs and EPCs to SDF-1α
- frequency/number of SPCs in the bone marrow [14]: an increase in the number of SPCs
- circulating SPCs [5]: no SPCs were detected
- MSC mobilization ([6]; G-CSF or VEGF 2.5 μg on 4 consecutive days, then AMD3100): does not mobilize MSCs
- MSC mobilization ([6]; agent alone): does not mobilize MSCs
- CXCR4 expression on EPCs ([15]; CD34+ VEGFR2+ bone marrow cells, FIG. 23c): the expression of CXCR4 on EPCs was unchanged
- CXCR4 expression on HPCs ([15]; Lin- Sca-1+ bone marrow cells, FIG. 23b): significant reduction
- SDF-1α levels in bone marrow supernatant [16]: significant reduction in levels of SDF-1α
- percentage of CD34+ VEGFR2+ EPCs in S/G2/M phase of the cell-cycle [17]: does not stimulate entry
- total number of cells in the femurs [18]: 1.41±0.28×10^7 cells/femur
- SPC mobilization from the bone marrow [7, 22]: did not lead to the mobilization of SPCs
- SPC mobilization, acute administration ([7]; growth factor (50 nM) infused acutely, alone or in combination with CXCR4 antagonist, FIG. 31c): neither growth factor, when administered acutely or in combination with the CXCR4 antagonist led to mobilization of SPCs
- SPC mobilization from the bone marrow [7, 25]: no SPCs were mobilized
- HPC mobilization from the bone marrow [8, 23]: enhanced the basal rate of HPC and EPC egress from the bone marrow
- HPC mobilization, acute administration ([8]; growth factor (50 nM) infused into femoral artery for 10 minutes, alone, FIG. 31a): mobilized both HPCs and EPCs
- HPC mobilization from the bone marrow [8, 25]: synergistic mobilization of HPCs
- circulating numbers of EPCs ([9]; growth factor pre-treatment over 4 days, then CXCR4 antagonist AMD3100 5 mg/kg i.p.): no such synergism (or even additive effect) was apparent for EPC mobilization
- percentage of Lin- Sca-1+ HPCs in S/G2/M phase of the cell-cycle [19]: does not stimulate entry
- circulating numbers of HPCs [10, 24]: increased circulating numbers of HPCs
- circulating numbers of HPCs ([10]; growth factor pre-treatment over 4 days, then CXCR4 antagonist AMD3100 5 mg/kg i.p., blood at 60 min): synergistically enhanced circulating numbers of HPCs
- EPC chemotaxis towards SDF-1α [20]: further increased migration of HPCs and EPCs to SDF-1α
- stem cell mobilisation [21]: mobilises HPCs but causes a decrease in MSCs
